Data as given in US20220177594A1.
Numbering of substitutions follows the chain as printed. Blank lines part the entries; values can stand above or below the binder they belong to.

Assays:
[1] = molecular target: Canine_OSMR_hlgG1_Fc (canine); assay: SPR Biacore, OSMR on chip
[2] = molecular target: Feline_OSMR_hlgG1_Fc (feline); assay: SPR Biacore, OSMR on chip
[3] = molecular target: Feline_OSMR_hlgG1_Fc (feline); assay: SPR Biacore
[4] = molecular target: Feline_OSMR_hlgG1_Fc (feline); assay: indirect ELISA, fOSMR coated; OD ratio to antibody expression control
[5] = molecular target: Canine_OSMR_hlgG1_Fc (canine); assay: SPR Biacore

Sequence of Feline_OSMR_hlgG1_Fc (feline) (chain, as listed by the source limits assumed, form in doubt): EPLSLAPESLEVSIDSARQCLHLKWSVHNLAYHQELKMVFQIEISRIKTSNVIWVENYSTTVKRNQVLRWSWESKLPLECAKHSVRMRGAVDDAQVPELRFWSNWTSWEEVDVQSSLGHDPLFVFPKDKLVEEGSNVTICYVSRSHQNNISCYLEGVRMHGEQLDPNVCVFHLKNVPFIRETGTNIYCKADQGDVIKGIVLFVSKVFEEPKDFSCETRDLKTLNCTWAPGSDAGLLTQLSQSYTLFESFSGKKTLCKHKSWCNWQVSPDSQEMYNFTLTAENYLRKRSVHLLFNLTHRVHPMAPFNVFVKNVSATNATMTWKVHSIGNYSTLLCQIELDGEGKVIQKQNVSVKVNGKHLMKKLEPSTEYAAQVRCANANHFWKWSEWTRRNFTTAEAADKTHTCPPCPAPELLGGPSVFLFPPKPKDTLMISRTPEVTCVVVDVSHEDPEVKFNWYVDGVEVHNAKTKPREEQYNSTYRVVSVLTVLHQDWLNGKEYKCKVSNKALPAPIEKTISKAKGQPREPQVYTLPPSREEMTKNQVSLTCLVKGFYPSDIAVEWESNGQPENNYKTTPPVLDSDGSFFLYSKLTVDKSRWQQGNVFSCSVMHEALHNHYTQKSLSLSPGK
Sequence of Canine_OSMR_hlgG1_Fc (canine) (chain, as listed by the source limits assumed, form in doubt): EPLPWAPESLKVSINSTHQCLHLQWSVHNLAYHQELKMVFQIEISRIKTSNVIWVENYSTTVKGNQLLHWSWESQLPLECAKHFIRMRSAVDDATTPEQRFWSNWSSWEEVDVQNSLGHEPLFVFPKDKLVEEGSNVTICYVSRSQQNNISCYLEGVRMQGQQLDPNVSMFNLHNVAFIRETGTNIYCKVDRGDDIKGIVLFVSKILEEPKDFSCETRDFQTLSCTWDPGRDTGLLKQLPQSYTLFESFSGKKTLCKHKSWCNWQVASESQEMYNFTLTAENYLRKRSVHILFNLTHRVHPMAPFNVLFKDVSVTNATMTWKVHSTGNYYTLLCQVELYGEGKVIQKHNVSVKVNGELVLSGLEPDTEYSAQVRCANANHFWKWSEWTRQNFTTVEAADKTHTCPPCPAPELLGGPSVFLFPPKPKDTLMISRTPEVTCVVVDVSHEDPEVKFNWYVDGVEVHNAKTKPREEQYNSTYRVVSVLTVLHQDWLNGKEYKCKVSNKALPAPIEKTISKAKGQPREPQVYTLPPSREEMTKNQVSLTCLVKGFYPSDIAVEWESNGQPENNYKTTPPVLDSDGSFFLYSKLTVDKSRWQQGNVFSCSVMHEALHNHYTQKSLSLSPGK

Kd [1]: 12.8 nM
koff [1]: 0.00328 s⁻¹
kon [1]: 256000 M⁻¹ s⁻¹
Kd [2]: 6.65 nM
koff [2]: 0.000942 s⁻¹
kon [2]: 142000 M⁻¹ s⁻¹
Kd [3]: 9.08 nM
koff [3]: 0.00119 s⁻¹
kon [3]: 131000 M⁻¹ s⁻¹
ELISA ratio [4]: 1.61 OD ratio
B1: mouse: canine 02D09 chimera (antibody, V domains shown)
VH: EVQLVESGGGLVKPGGSLTLSCAASGFTFSDYGMHWLRQAPEKGLEWVAYISSGSRAVFFADTVKGRFTISRDNAKNTLFLQMTSLRSDDTAMYYCARDRYDGRGFAYWGQGTLVTVSA
VL: DIVLTQSPATLSVTPGDSVSLSCRASQSISNNLHWYQQTSHESPRLLITYASQSISGIPSRFSGSGSGTDFTLSINSVETEDFGMYFCQQSNSWPLTFGAGTKLELKR

Kd [1]: 442 nM
koff [1]: 0.00084 s⁻¹
kon [1]: 1900 M⁻¹ s⁻¹
Kd [2]: 44.5 nM
koff [2]: 0.002 s⁻¹
kon [2]: 45100 M⁻¹ s⁻¹
Kd [5]: 7.49 nM
koff [5]: 0.000775 s⁻¹
kon [5]: 88400 M⁻¹ s⁻¹
Kd [3]: 0.312 nM
koff [3]: 8.06e-05 s⁻¹
kon [3]: 242000 M⁻¹ s⁻¹
ELISA ratio [4]: 1.72 OD ratio
B2: mouse: canine 19F07 chimera (antibody, V domains shown)
VH: EVKLVESEGGLVQPGSSMKLSCTASGFTFSDYYMAWVRQVPEKGLEWVANINYDGSSTYYLDSLKSRFIISRDNAKNILYLQMSSLKSEDTATYYCARGLTWDFDVWGTGTTVTVSS
VL: DIVMTQSHKFMSPSVGDRVSITCKASQDVDTAVAWYQQKPGQSPKLLIYLASTRHTGVPDRFTGSGSGTDFTLTISNVQSEDLADYFCQQYSRFPLTFGAGTKLELKR

Kd [1]: 5.29 nM
koff [1]: 0.00104 s⁻¹
kon [1]: 196000 M⁻¹ s⁻¹
Kd [2]: 2.37 nM
koff [2]: 0.000697 s⁻¹
kon [2]: 294000 M⁻¹ s⁻¹
Kd [5]: 3.83 nM
koff [5]: 0.0021 s⁻¹
kon [5]: 572000 M⁻¹ s⁻¹
Kd [3]: 1.24 nM
koff [3]: 0.000945 s⁻¹
kon [3]: 759000 M⁻¹ s⁻¹
ELISA ratio [4]: 1.61 OD ratio
B3: mouse: canine 09E09 chimera (antibody, V domains shown)
VH: DVKLVESGEGLVKPGGSLKLSCAASGFTFSSYAMSWVRQTPEKRLEWVAYISSGGDYIYYADTVKGRFTISRDNARNTLYLQMSSLKSEDTAMYYCTRDPITGTFAYWGQGTLVTVSA
VL: DLQMTQTTSSLSASLGDRVTISCRASQDINNYLNWYQQKPDGTVKLLIYYTSTLHSGVPSRFSGSGSGTDYSLTISNLEQEDIATYFCQQGNTLPWTFGGGTKLEIKR

Kd [1]: 1.38 nM
koff [1]: 0.000222 s⁻¹
kon [1]: 161000 M⁻¹ s⁻¹
Kd [2]: 0.022 nM
koff [2]: 4.4e-07 s⁻¹
kon [2]: 20000 M⁻¹ s⁻¹
Kd [5]: 6.13 nM
koff [5]: 0.000302 s⁻¹
kon [5]: 49400 M⁻¹ s⁻¹
Kd [3]: 1.57 nM
koff [3]: 0.000346 s⁻¹
kon [3]: 220000 M⁻¹ s⁻¹
ELISA ratio [4]: 1.76 OD ratio
B4: mouse: canine 10F07 chimera (antibody, V domains shown)
VH: B3 VH with A49T, I58F
VL: B3 VL with L2I, N30T, Y71F, N92H, T93M
